According to patent publication US20240084330A1 (BROAD INSTITUTE, published 2024):

B1: MmPNMA3 (mouse PNMA3 produced in E. coli, tags removed) (other, UniProt Q8JZW8 1-466, looked up)
chain: MPLNLLQDWCRGEHLNTQRSMLILGIPEDCSEDEFEETLHEALKHLGRYRIIGRMFRREENAQAFLVELARDFDYALVPREIEGKGGPWEVVVKPPHSDDEFLNRLNHFLEEERRTVSDMNRVLGTHSNHSPTKTTISADFWVWAQTLGAVMQPLLEQMLYRELRVFSGNTISIPGLLAFDSWLEHTTEMLQMWQVPEVEKRRRLMECLRGPALQVVNVLRANNAAITVKECLEALRQVFGSVDNRKIAQLKFCKAYQEPGEKVSSFVVRLETLLQKALEKNAISRKNVNQTRLKRILGGAILSAKLREKLKMLKQRRRPPGFLALVKLFREEEEEWEATRGSERSCYEGLELGPSPSNIGSEERELFVPAFGSVLEERPYQGSRRRRHRRRGQHRKGGVPRDDSQGTRKQNYDTFCYSCGEDGHIRVHCFNPSNRTLVKQKRQAAMEKGNRSWAWEKSHPKPKTK
notes: Cloned from mouse cDNA into a TwinStrep-SUMO backbone; tags cleaved with SUMO protease before size exclusion
B2: MmMOAP1 (mouse MOAP1 produced in E. coli, tags removed) (other, UniProt Q9ERH6 1-352, looked up)
chain: MTLRLLEDWCRGMDMNPRKALLVAGIPPTCGVADIEEALQAGLAPLGEHRLLGRMFRRDENKNVALIGLTVETGSALVPKEIPAKGGVWRVIFKPPDTDSDFLCRLNEFLKGEGMTMGELTRVLGNRNDPLGLDPGIMIPEIRAPMLAQALNEALKPTLQYLRYKKLSVFSGRDPPGPGEEEFESWMFHTSQVMKTWQVSDVEKRRRLIESLRGPAFEIIRVLKINNPFITVAECLKTLETIFGIIDNPRALQVKYLTTYQKTDEKLSAYVLRLEPLLQKLVQKGAIEKEVVNQARLDQVIAGAVHKSVRRELGLPEGSPAPGLLQLLTLIKDKEAEEEEVLLQAELEGYCT
notes: Cloned from mouse cDNA into a TwinStrep-SUMO backbone; tags cleaved with SUMO protease before size exclusion; also called modulator of apoptosis 1; Pnma4
B3: MmPNMA5 (mouse PNMA5 produced in E. coli, tags removed) (other, UniProt Q5DTT8 1-618, looked up)
chain: MAVALLDDWCKGMDLDPKKAVLIVGIPVQYTEAAINDALKEGLPPLCAYKVIGRMFRREDEAKAVLIELPEVVDYTMMPTHIPAEGGAWEVVVKPRSPDDEFMNKLIYFLRDEGRRIVDVAKALGFSTVPTGKIELKNLDQDKPKGLKSLCNNSTCYKKLKVFSGSPFPGPGEESFETWLEEVTELMQLWQVSEREKKQCLLESLRGSALSIMQALWTSNDSLTVEQCLKALKHIFGNKEDSKVLQFRFLQSSQKPAEKVSDYLLRLEPLLQKAVQQSPLSAHSADSIRLKHVLSQVSMTTGLRGKLSLLDQQGCPPTFLELMKLTRDEEEWESTVVVEEQEQVRRDSSACEAANEVVTQAEDSREVSTQTTGEEMTSVKRRRLLWRHSAGEEGQRKESGFWAESEPDEQKPYVRAQESGNERGAWAVSHPNPKEIEAQDSQEFLPVAGNRDTLTKSWGSPDKGTGDMSVAEGQQGQGKAPNFLLARNDPNKQEQIPHSSVTTKWQDRGECQRLKWGASMITRPQGNPDRSWDTSGSQDGEDGCSELRMPTGTEAAQGVEEPATGLSWAEDTSAWEQARLGRETVPRRGGRRIQPVFRIIYTALGEPHEGSTLESFRE
notes: as for B1

Molecular target: the molecule itself
Experiment: self-assembly of E. coli-produced protein; size exclusion and electron microscopy

Binding result, binds:
B1
B2
B3
